Source: the supplement of paper PMC7125110
± gives the standard error. This sample holds only a part of the variants without activity.

B1: glmS ribozyme (parent)
chain: AUAAAAGCGCCAGAACUACAGAAAUGUAGUUGACGAGGAGGAGGUUUAUCGAAUUUUCGGCGGAUGCCUCCAAA

Experiments:
Settings in all cases: with glucosamine-6-phosphate
glucosamine-6-phosphate [1] = variants of: B1; test: self-cleavage kobs at 40 uM GlcN6P; higher = faster cleavage; RNA array
Outline: (§1)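 Glucosamine-6-phosphate, from 40 μM to 10 mM in HEPES/KCl/Mg(OAc)2 buffer, was flowed over sequenced MiSeq chips carrying barcoded ribozyme variants transcribed in situ by E. coli RNA polymerase. A hybridised Cy3 probe tracked the variants at 37 °C as tiles were imaged over ~14 h. kobs, kcat and KM were obtained by fitting normalised per-tile medians to exponential decays and then applying weighted Michaelis–Menten fits across concentrations.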

glucosamine-6-phosphate [2] = variants of: B1; test: self-cleavage kobs at 160 uM GlcN6P; higher = faster cleavage; RNA array
Outline: as §1

glucosamine-6-phosphate [3] = variants of: B1; test: self-cleavage kobs at 2500 uM GlcN6P; higher = faster cleavage; RNA array
Outline: as §1

glucosamine-6-phosphate [4] = variants of: B1; test: self-cleavage kobs at 10000 uM GlcN6P; higher = faster cleavage; RNA array
Outline: as §1

glucosamine-6-phosphate [5] = variants of: B1; test: self-cleavage kobs at 640 uM GlcN6P; higher = faster cleavage; RNA array
Outline: as §1

| Variant | self-cleavage kobs at 40 uM GlcN6P (glucosamine-6-phosphate [1]) | self-cleavage kobs at 160 uM GlcN6P (glucosamine-6-phosphate [2]) | self-cleavage kobs at 2500 uM GlcN6P (glucosamine-6-phosphate [3]) | self-cleavage kobs at 10000 uM GlcN6P (glucosamine-6-phosphate [4]) | self-cleavage kobs at 640 uM GlcN6P (glucosamine-6-phosphate [5]) |
| --- | --- | --- | --- | --- | --- |
| G32C G41A A52C | < 1e-05 s⁻¹ | < 1e-05 s⁻¹ | < 1e-05 s⁻¹ |  |  |
| G32C U47G U55G U65C U69G | 0.000245 ± 8.5e-05 s⁻¹ |  |  | 0.000357 ± 9.5e-05 s⁻¹ |  |
| G32A C50G G51A | < 1e-05 s⁻¹ |  |  |  |  |
| G32C A36C G37C | < 1e-05 s⁻¹ |  |  |  |  |
| A33C C58A G62A | < 1e-05 s⁻¹ |  |  |  |  |
| A33U A53U A64U | < 1e-05 s⁻¹ |  |  | < 1e-05 s⁻¹ |  |
| U30A C68A | < 1e-05 s⁻¹ |  |  |  |  |
| U30C A48C | < 1e-05 s⁻¹ | < 1e-05 s⁻¹ | < 1e-05 s⁻¹ | < 1e-05 s⁻¹ | < 1e-05 s⁻¹ |
| U30C A52U | < 1e-05 s⁻¹ |  |  |  | < 1e-05 s⁻¹ |
| A33C G40C | < 1e-05 s⁻¹ | < 1e-05 s⁻¹ |  |  | < 1e-05 s⁻¹ |
| U31G G44A G51U C61U C70G | < 1e-05 s⁻¹ |  |  |  |  |
| G32A C50U | < 1e-05 s⁻¹ |  |  |  | < 1e-05 s⁻¹ |
| A33G G59C | < 1e-05 s⁻¹ | < 1e-05 s⁻¹ | < 1e-05 s⁻¹ | < 1e-05 s⁻¹ | < 1e-05 s⁻¹ |
| A33C C58A | < 1e-05 s⁻¹ |  |  |  | < 1e-05 s⁻¹ |
| U31G A53U C58G G60A | < 1e-05 s⁻¹ |  |  | < 1e-05 s⁻¹ |  |
| U31C G63C | < 1e-05 s⁻¹ | < 1e-05 s⁻¹ |  | < 1e-05 s⁻¹ | < 1e-05 s⁻¹ |
| U30A A52U U54A C71A | < 1e-05 s⁻¹ |  |  |  |  |
| U30A G35A G51A G60U | < 1e-05 s⁻¹ |  |  | < 1e-05 s⁻¹ |  |
| G32U C34U | < 1e-05 s⁻¹ | < 1e-05 s⁻¹ |  | < 1e-05 s⁻¹ | < 1e-05 s⁻¹ |
| U31A U69C | 0.000182 ± 6.5e-05 s⁻¹ | 0.000243 ± 4.5e-05 s⁻¹ |  | 0.0039 ± 0.0012 s⁻¹ | 0.000515 ± 0.00012 s⁻¹ |
| A33C A64C | < 1e-05 s⁻¹ | < 1e-05 s⁻¹ | < 1e-05 s⁻¹ | < 1e-05 s⁻¹ | < 1e-05 s⁻¹ |
| U31G G60C C68A | < 1e-05 s⁻¹ |  |  |  |  |
| U30G A42G U55G | 0.000185 ± 4.5e-05 s⁻¹ |  | 0.0026 ± 0.00051 s⁻¹ | 0.00677 ± 0.0014 s⁻¹ |  |
| A33U G38U G40U | < 1e-05 s⁻¹ |  |  |  |  |
| G32U G38A | < 1e-05 s⁻¹ |  |  | < 1e-05 s⁻¹ |  |
| G32C A36U | < 1e-05 s⁻¹ | < 1e-05 s⁻¹ | < 1e-05 s⁻¹ |  | < 1e-05 s⁻¹ |

| Variant | self-cleavage kobs at 40 uM GlcN6P (glucosamine-6-phosphate [1]) | self-cleavage kobs at 160 uM GlcN6P (glucosamine-6-phosphate [2]) | self-cleavage kobs at 2500 uM GlcN6P (glucosamine-6-phosphate [3]) | self-cleavage kobs at 10000 uM GlcN6P (glucosamine-6-phosphate [4]) | self-cleavage kobs at 640 uM GlcN6P (glucosamine-6-phosphate [5]) |
| --- | --- | --- | --- | --- | --- |
| A33U U49A C71U | < 1e-05 s⁻¹ |  |  | < 1e-05 s⁻¹ |  |
| U30C U45G | < 1e-05 s⁻¹ | < 1e-05 s⁻¹ |  |  |  |
| U30C G40A A52G U55C C61G | < 1e-05 s⁻¹ |  |  | < 1e-05 s⁻¹ |  |
| G32U G43C | < 1e-05 s⁻¹ | < 1e-05 s⁻¹ | < 1e-05 s⁻¹ |  | < 1e-05 s⁻¹ |
| G32C A52C G63A | < 1e-05 s⁻¹ |  |  |  |  |
| G32U G59U C71G | < 1e-05 s⁻¹ |  |  |  | < 1e-05 s⁻¹ |
| U31G A39U C61U | < 1e-05 s⁻¹ |  |  |  |  |
| U31A G37C U69G | < 1e-05 s⁻¹ |  |  |  |  |
| A33C G43C C58A U69A | < 1e-05 s⁻¹ |  |  | < 1e-05 s⁻¹ | < 1e-05 s⁻¹ |
| U30A G44A | < 1e-05 s⁻¹ | < 1e-05 s⁻¹ |  | 4.03e-05 ± 8.7e-06 s⁻¹ |  |
| U31C G66C C67G | < 1e-05 s⁻¹ |  |  |  |  |
| U30C G43A | < 1e-05 s⁻¹ | < 1e-05 s⁻¹ | < 1e-05 s⁻¹ | < 1e-05 s⁻¹ |  |
| G32C G40A | < 1e-05 s⁻¹ | < 1e-05 s⁻¹ |  | 1.99e-05 ± 7.3e-06 s⁻¹ |  |
| G32A U47C A48G C71U | < 1e-05 s⁻¹ |  |  |  |  |
| G32U U46G C61U | < 1e-05 s⁻¹ |  | < 1e-05 s⁻¹ | < 1e-05 s⁻¹ |  |
| G32U A33C U45G U65A | < 1e-05 s⁻¹ |  | < 1e-05 s⁻¹ | < 1e-05 s⁻¹ | < 1e-05 s⁻¹ |
| U31C U57G | < 1e-05 s⁻¹ |  |  |  |  |
| U31C G40A G59U | < 1e-05 s⁻¹ |  | < 1e-05 s⁻¹ | < 1e-05 s⁻¹ | < 1e-05 s⁻¹ |
| U31G G35C | < 1e-05 s⁻¹ | < 1e-05 s⁻¹ | < 1e-05 s⁻¹ |  | < 1e-05 s⁻¹ |
| A33U A39U G44C G63C C67G | < 1e-05 s⁻¹ |  |  | < 1e-05 s⁻¹ |  |
| G32A U57G | < 1e-05 s⁻¹ |  |  |  |  |
| U30G G32A G35C A42C | < 1e-05 s⁻¹ |  |  |  |  |
| A33G A48G C71U | < 1e-05 s⁻¹ | < 1e-05 s⁻¹ | < 1e-05 s⁻¹ | < 1e-05 s⁻¹ |  |
| U31G A39C G44C | < 1e-05 s⁻¹ |  |  |  |  |
| U31A U55C G63C C67G | < 1e-05 s⁻¹ |  | < 1e-05 s⁻¹ | < 1e-05 s⁻¹ |  |
| U31G A42G | 0.00033 ± 8.8e-05 s⁻¹ |  | 0.00724 ± 0.0018 s⁻¹ | 0.0263 ± 0.0086 s⁻¹ | 0.00343 ± 0.0011 s⁻¹ |
